How the values were obtained:
Details in all cases: protein: recombinant; tags: C-terminal Strep on PafC; copies: 1;1; label: FAM; single strand
PafBC, PafC WYL variant = molecular target: T1, PafBC, PafC WYL variant (Mycobacterium smegmatis, UniProt A4ZHT0;A0QZ41 1-331;1-318, R201A;R204A); test: EMSA; affinity comparable to WT; ssDNA EMSA: 22.5 mM Hepes-KOH pH 7.8, 135 mM NaCl, 20 mM KCl, 5 mM MgCl2, 1 mM DTT, 37 C 15 min, 10 nM DNA, 0-16 uM PafBC; RNAP EMSA: 20 mM Hepes-NaOH pH 8, 100 mM K-acetate, 36 mM NaCl, 10 mM MgCl2, 2 mM DTT, 37 C 30 min
T1 sequence 1: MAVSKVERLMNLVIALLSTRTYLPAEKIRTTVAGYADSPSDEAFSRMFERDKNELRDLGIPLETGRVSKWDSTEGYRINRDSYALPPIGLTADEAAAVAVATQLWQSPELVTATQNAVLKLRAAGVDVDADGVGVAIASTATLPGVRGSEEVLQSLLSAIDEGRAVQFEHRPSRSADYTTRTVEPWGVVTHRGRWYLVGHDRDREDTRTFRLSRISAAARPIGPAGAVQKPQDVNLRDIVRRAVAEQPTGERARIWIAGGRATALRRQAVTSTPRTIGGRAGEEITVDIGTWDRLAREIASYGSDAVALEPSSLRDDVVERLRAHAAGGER
T1 sequence 2: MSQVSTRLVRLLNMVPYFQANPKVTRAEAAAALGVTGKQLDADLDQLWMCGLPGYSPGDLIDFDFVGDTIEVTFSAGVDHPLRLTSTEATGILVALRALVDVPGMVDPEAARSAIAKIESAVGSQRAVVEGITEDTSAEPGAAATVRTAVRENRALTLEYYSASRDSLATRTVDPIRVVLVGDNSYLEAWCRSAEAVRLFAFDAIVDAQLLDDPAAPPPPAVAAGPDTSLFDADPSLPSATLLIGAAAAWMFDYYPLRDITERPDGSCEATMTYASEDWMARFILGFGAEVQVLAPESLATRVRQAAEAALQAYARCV

PafBC, PafB R181A = molecular target: T2, PafBC, PafB R181A (Mycobacterium smegmatis, UniProt A4ZHT0;A0QZ41 1-331;1-318, R181A); test: EMSA; up to 16 uM; ssDNA EMSA: 22.5 mM Hepes-KOH pH 7.8, 135 mM NaCl, 20 mM KCl, 5 mM MgCl2, 1 mM DTT, 37 C 15 min, 10 nM DNA, 0-16 uM PafBC; RNAP EMSA: 20 mM Hepes-NaOH pH 8, 100 mM K-acetate, 36 mM NaCl, 10 mM MgCl2, 2 mM DTT, 37 C 30 min
T2 sequence 1: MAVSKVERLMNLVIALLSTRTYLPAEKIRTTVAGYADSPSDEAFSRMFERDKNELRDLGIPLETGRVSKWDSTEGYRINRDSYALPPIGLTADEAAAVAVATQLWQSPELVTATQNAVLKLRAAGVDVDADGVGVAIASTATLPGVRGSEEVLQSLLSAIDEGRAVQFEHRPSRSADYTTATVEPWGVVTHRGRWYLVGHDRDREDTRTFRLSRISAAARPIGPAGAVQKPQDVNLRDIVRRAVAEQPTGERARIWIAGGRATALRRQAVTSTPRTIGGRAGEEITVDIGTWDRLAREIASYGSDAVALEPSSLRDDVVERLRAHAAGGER
T2 sequence 2: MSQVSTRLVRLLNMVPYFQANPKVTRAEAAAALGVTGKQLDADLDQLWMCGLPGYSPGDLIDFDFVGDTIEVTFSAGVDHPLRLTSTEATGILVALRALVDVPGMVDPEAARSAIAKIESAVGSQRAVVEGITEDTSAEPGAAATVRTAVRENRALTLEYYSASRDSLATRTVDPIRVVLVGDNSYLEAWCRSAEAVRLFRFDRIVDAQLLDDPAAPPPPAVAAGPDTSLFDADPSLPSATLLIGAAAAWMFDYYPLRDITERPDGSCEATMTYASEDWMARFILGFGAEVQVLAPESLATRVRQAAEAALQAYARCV

PafBC WYL RR = molecular target: T3, PafBC WYL RR (Mycobacterium smegmatis, UniProt A4ZHT0;A0QZ41 1-331;1-318, R211A;R214A;R201A;R204A); test: as above
T3 sequence 1: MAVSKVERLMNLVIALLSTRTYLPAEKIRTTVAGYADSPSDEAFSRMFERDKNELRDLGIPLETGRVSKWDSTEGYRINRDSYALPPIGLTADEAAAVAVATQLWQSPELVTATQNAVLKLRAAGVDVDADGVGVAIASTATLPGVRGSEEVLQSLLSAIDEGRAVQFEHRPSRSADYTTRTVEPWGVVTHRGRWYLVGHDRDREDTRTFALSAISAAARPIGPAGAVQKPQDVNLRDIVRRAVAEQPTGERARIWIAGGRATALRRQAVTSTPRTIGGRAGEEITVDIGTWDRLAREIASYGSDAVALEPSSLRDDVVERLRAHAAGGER
T3 sequence 2: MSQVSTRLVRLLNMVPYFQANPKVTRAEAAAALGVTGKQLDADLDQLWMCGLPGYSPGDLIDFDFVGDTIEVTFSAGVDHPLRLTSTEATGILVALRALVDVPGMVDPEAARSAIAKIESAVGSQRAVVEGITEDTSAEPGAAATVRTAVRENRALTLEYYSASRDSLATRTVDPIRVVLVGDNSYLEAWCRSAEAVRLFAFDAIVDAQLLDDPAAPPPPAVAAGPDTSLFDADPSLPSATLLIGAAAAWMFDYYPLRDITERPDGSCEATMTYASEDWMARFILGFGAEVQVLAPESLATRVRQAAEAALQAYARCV

[1] = molecular target: T4, PafBC, PafB R181A/R204A/R208A (Mycobacterium smegmatis, UniProt A4ZHT0;A0QZ41 1-331;1-318, R204A;R208A;PafB:R181A); test: as above
T4 sequence 1: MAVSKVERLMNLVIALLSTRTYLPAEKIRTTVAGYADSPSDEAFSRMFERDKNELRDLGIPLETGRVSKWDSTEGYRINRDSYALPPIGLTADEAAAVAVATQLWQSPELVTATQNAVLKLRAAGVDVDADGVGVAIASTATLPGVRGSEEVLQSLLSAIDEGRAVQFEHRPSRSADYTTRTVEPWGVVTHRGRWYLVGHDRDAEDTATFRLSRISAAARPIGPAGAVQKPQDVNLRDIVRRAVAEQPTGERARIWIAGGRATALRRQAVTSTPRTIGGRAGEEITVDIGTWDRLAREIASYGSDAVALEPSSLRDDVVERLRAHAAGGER
T4 sequence 2: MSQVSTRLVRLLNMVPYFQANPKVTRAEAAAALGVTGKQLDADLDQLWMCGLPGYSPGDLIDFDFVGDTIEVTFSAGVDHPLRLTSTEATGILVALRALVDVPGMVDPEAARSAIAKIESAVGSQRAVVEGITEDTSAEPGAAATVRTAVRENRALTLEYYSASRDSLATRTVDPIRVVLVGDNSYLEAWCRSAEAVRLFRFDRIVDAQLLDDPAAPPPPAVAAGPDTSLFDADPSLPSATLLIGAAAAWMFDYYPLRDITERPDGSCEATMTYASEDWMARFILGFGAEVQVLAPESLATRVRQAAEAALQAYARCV

TTTTTTTTTTTTTTTTTTTT (ssDNA) [dT20 ssDNA]: binds (PafBC, PafC WYL variant); no binding (PafBC, PafB R181A); no binding (PafBC WYL RR). TTTTTTTTTTTTTTTTTTTT (ssDNA) [dT20 ssDNA]: no binding [1].

Reference: article PMC11804915, “Single-stranded DNA binding to the transcription factor PafBC triggers the mycobacterial DNA damage response”
